Test results as given in the domain aggregation screens of Martell et al. (2025).

Assay: soluble fraction after stress (log2 fold change); higher = more stays soluble; pooled small domains, quantitative proteomics
Settings: stress: pH 4
Outline: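 Custom libraries of small protein domains were pooled and measured with high-throughput quantitative proteomics after pH 4 stress. The read-out is the fold change in the amount of each domain that stays soluble after the acid stress, taken as a measure of aggregation propensity. Fold changes are on a log2 scale, and higher values mean more of the domain stayed soluble.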

Sequence: HMGDLVKGKVVGYDPDNVIVDIGAKTNALVPNREAVVEAGDDIKETLKKGNEYEFLIIRDEDEEGEFL
- soluble fraction (log2): 0.0813

Sequence: HMGDPEYFKKQLGDFMDRFNITSEDIKNLSIAGAINRMMNNAEGEDKTVLSKLLETVNKSGVGNLPAKTI
- soluble fraction (log2): -0.144

Sequence: HMGDPVRVDKFLHDMNVGTRSQIRKLIKEKAVFVNDVVAKSGRVKVDPVVDQVRLGEQVITYQ
- soluble fraction (log2): 0.0055

Sequence: HMGDPYAILGLLPGASMEDVRHAWRRQAAENHPDRMLQRGAPPEFVEIAREKTAAINAAYARIREELSI
- soluble fraction (log2): -0.638

Sequence: HMGDTIGEQKAKEIALEHAGLKSSDVTFIRAVLEYDDRNWEYDVEFYDADTYTEYDYEIDAHTGKILSFDH
- soluble fraction (log2): -0.171

Sequence: HMGDTPVDFSEFIRWVDTGVVDRVELTGNEIVGTSSSGERFSTYAPPQYEGLGNKLIERDIVVVATAA
- soluble fraction (log2): -1.21

Sequence: HMGDTVSGTMLNLKPGVRVVHQIFGPGRVEETTGASLAEFRVTVRFEQKGLKTLLLQYAALQVINSEN
- soluble fraction (log2): -1.05

Sequence: HMGDVKLNAIYNFLKEFSALNGFPPSVREIGAKFGIKSTSTVHYYLEKLKQSGVIQQEENKKRAVVIN
- soluble fraction (log2): -0.446

Sequence: HMGDWEDFWEKEARRRKLSLDYQVVRSLSRWSREYDWGEEDVEQFLSQFPEGETVKMEDVELYFE
- soluble fraction (log2): -1.41

Sequence: HMGDYDHYVVKVEDTLLNWLVTNVTTMSRNKLKDILAGQGIKVNGKITTKYDYPLTPGMKIAISKTKR
- soluble fraction (log2): -0.351

Sequence: HMGEAIPVPDIRHKSQADAERLLQDQGLAMMVTDTGYVKTLPANYILEQIPVAGEKVKSGHVVYVIINSG
- soluble fraction (log2): 0.0317

Sequence: HMGEGIRIDSTAVVQVGEKMYAYLGGDGFSKEFWTNLPASGELAVTLKFEPIPMDAESLDFYEMPA
- soluble fraction (log2): 0.154

Sequence: HMGEILYSGVLKGGDGPEATKLALEKFLGEANTQVAGRIGVQPETQVIWLSREAVDSAASTLSQHKGNMYV
- soluble fraction (log2): -0.0574

Sequence: HMGELDFYEEMRDDYLTGKIWNVGEIVEAKGMIGEIVRKGTNYISFVTDDNKVHKAWLHEIKL
- soluble fraction (log2): -1.37

Sequence: HMGELRAPLPGVIVSIPVKEGDEVKAGQAILIIEAMKMESEISSPIDAKVAKIVVKERVLVQEGDILIILE
- soluble fraction (log2): -0.876

Sequence: HMGEMTDFETLRDMYLTGQIWNIDDLIEANGVEGRIVRRGTNYIAFNDRDGKVHKAWLHEVTINE
- soluble fraction (log2): -1.39

Sequence: HMGENTIFSGVLGEGRLDSALAHALPQFSRARIQGLIAEDAVLIAGKATNDAASKKFAGQSFELSVPAPRP
- soluble fraction (log2): 0.0263

Sequence: HMGEPQAWNELIGNLLRQWEARQTGWTPARKREALDRVLGAADPAALYTRLQGLLKSWTQAMTDADA
- soluble fraction (log2): -0.956

Sequence: HMGEQETILKGDVNRDGVVDVNDVTHLQIHISNDDKNPLIDVTNKAWFDAADMYGDGKLDILDATALQIYI
- soluble fraction (log2): -0.145

Sequence: HMGERVDGVVKFFNGQKGFGFIQREDGGPDAFVHISAVERAGMAGLDEGQRVSFELELDRRGKQAAINLTP
- soluble fraction (log2): -0.192

Sequence: HMGESYGPVRRGETLWSIAEKVKPAGVSTQKELAAIYAANPQAFIRGDINLLKAGAELRLPSPEAL
- soluble fraction (log2): -0.0107

Sequence: HMGESYQIKDGELLVDIAQRVKPAGMTLRQTINALVAANPRAFRNGNPDLMYRGATLTIPDGDTLRRLAH
- soluble fraction (log2): 0.0238

Sequence: HMGEVQALIPGLVSKLFVVEGESVKIGQKLIILEAMKMENEIASPINGTIKKIYIKSGDKIDKGSIIMEIT
- soluble fraction (log2): -0.0106

Sequence: HMGEVVSAPMPGTILSIKVSQGQTVKRGQVLLILEAMKMENEIVAPRDGVVVQISTTQGASVETGAPLVVL
- soluble fraction (log2): -0.118

Sequence: HMGEVYPSDIVEKMKQANLHILEGTLYPLLTRLKNAGLLNYRWVESVTGPPRKYFVMTEEGKAAF
- soluble fraction (log2): 0.0276

Sequence: HMGEWHQMLRSWGETELKNGRQNILDEAVPAFERAMIETALAHTSGRKKDAALLLGWGRNTLTRKLQEHSI
- soluble fraction (log2): -0.349

Sequence: HMGEYGVLWYLLTKKEAVSAGELKEKLHVVPGRMTDILTALEKKGLIIRQKNKTDKRVVDVVLTKEGEKEA
- soluble fraction (log2): -0.511

Sequence: HMGFAEFWLAYPKKVGKGEAERKWKTLKPDAGAVLSAVKRQSASEQWRKDGGRYIPNPATWLHQRRWE
- soluble fraction (log2): 0.243

Sequence: HMGFALLIAIERTGNTTYFVKLTLIKKGSDSDVLKDSFSVSQGDLVGTATYDSVIANRIREKTAAMWQKAT
- soluble fraction (log2): -0.73

Sequence: HMGFDTSMNKYTIDDLLKLLELGSNPSQAEIVNKITNFNTIFVDNSGVIQFLNNIQDKLLDNFK
- soluble fraction (log2): -0.95

Sequence: HMGFDTVVEKVLGLITSRPMTSRDIQMTLGRSREHTSRLMNRLYKEGLVDRNTSSKPFSYIITEKGREKI
- soluble fraction (log2): 0.424

Sequence: HMGFPAPFDGKAVAELRRRLGLTRRGLAEELSVSPSTVDKWEQGDVALRSPALTILKILWHQGLKALPP
- soluble fraction (log2): ≥ 0.43

Sequence: HMGFSDDEHNALADADLKKALEVTTNKSETQYNIAKLIYSYIISLGDKKPYGDWSYDKALSIIHDA
- soluble fraction (log2): -0.00141

Sequence: HMGGAVQIAEQIAARIKDGALRPGELLPPVRQLAAELEVNPNTVASAYARLRDAGLVATRGRAGTVVLEPP
- soluble fraction (log2): -0.246

Sequence: HMGGAYATVKLSSSSSQLNVRASASTASRVVARLSHGFRVEVLGVSGDWVKIRALGVEGYVARAYLALEGE
- soluble fraction (log2): -0.17

Sequence: HMGGEAEVLQSIDEGREVEVRSVAADGSAEVIYRGARWRARAAVGSLAAGRWTIGRVDGTELVLEK
- soluble fraction (log2): 0.215

Sequence: HMGGEEKALLFGDVDIREAGEITQRLEQAEIPYELRGDGSSIFVPRSRVMEARMMISADGLL
- soluble fraction (log2): -0.901

Sequence: HMGGEKLPAPVAGTLLRYSVAEGARVSEGQTVIILESMKMELEINTPKAGVIHFLAAVGAQVAEGDTLAEI
- soluble fraction (log2): -0.171

Sequence: HMGGGTPEERLATLAAIAERQEMLLERLGPNNPLVSLGQYSRTLSRMVQLAGFKDASQYFNELPLDFQMPE
- soluble fraction (log2): -0.437

Sequence: HMGGHLAYGFSRRFGLLIDEQQGEPVIIARPDYSPVHYAEARRIVGQPAALRVVDEQAFNQLLQSQQESGA
- soluble fraction (log2): -0.383

Sequence: HMGGLENNLKQARNRVGLTQSELARQAGISRQAYSSLESGAANPSTEVALRLAQALSERVESLFYLPE
- soluble fraction (log2): -0.169

Sequence: HMGGNVYAYRLTASVKSGEQIPANKIEKVKMLSSDLPTNYVPDTVNVTAYKSKLDLQAGTILSTSLLYEN
- soluble fraction (log2): 0.247

Sequence: HMGGPTARQMEVLSLIAQGLPNKRIADELGIAERTVKLHITALLDSLGARNRTHLLVVARERGM
- soluble fraction (log2): -0.608

Sequence: HMGGQKTREAIFDLIMTNSKITSAQIAEILGIHRSGVARHLKKLQEEGLIKREGPDNGGQWIVIK
- soluble fraction (log2): -0.298

Sequence: HMGGQYQVRPGETLNQIAARVRPSNMSLSETQKAIIQANPDIFKNGNPNLIFAGDILRIPTGNQI
- soluble fraction (log2): -0.224

Sequence: HMGGTTLIAKQATVTGDIQFSSNLDIEGRVVGAISVEPGKEAMLHVVEGGSVEGEIRVPSAVINGKVTGDI
- soluble fraction (log2): -0.775

Sequence: HMGGVEWLTHPIGPRDSLQVLARAGLEARPTSDGDYEIYGQERWPQRDQARLMGWLRRFGQWVWQALYDK
- soluble fraction (log2): -0.386

Sequence: HMGHEALSSKLDEIQGVGKEKRSLLLDHFKTFERIKNASMEELEAVPSLGKNTAKAVFRFFHS
- soluble fraction (log2): 0.236

Sequence: HMGHLTWTVTGIGHERRARTVAEQMSSVFGVLEARASSAGTVYLEFEREKIDEGGLEASLKRMGVTRVV
- soluble fraction (log2): -2.05

Sequence: HMGIAFDYDAGRFDQVPPNLVEKWQQAYPAVDVLSELRRMEAWASANPVNRKSNWQRFIVNWLTRAQDRAG
- soluble fraction (log2): -0.16

Sequence: HMGIAKYRQVTEWIQNRIATGELNRGDQIESENDISRTFGISRQTVRHALGLLEQQGILTRIQGRGTFVRD
- soluble fraction (log2): 0.309

Sequence: HMGIFDIIQEINRQGVTVLLIEQNANMALKIADVGYVLETGRISLTGSGRELLANEAVKKAYL
- soluble fraction (log2): ≥ 0.43

Sequence: HMGIKYTNQRVEILNFLKDNLSHPTVDDVYEGVKKKLTRISKATVYQNLKFLASKGLIQEVNIKGVSRFEP
- soluble fraction (log2): 0.22

Sequence: HMGIRQGKVTSTFVNVRSGASTANAKVGELHKGDVVSLIEKVANFWRIGPGQFVSADYIQVLAS
- soluble fraction (log2): -0.0122

Sequence: HMGIRYQLADDVTDEQITAMTGKKAKIAAAIKAAGSAVSKMNVAGEMGYDKQNPINKDFMELVDAGIIVPS
- soluble fraction (log2): -0.121

Sequence: HMGISEKVINIIETYTMIARKKYPSVKSLAEHFNVSERTVHRYLEIIKMIDVVDYDREKKGYFFPYGDR
- soluble fraction (log2): -0.462

Sequence: HMGISSESIKTFIREIVENEDPKAPLSDQTMVELLAERGIDISRRTVAKYRDEMNLPSSSKRKR
- soluble fraction (log2): -0.168

Sequence: HMGKAMIDWEREQSILRILLRQKALTTEQAREVYQDGMREDLSALEMGVQRGYFTHEQLREATGGE
- soluble fraction (log2): 0.00817

Sequence: HMGKASNEVYEVISSKIRTGEWAPGYKLPSEPTLAEEFGVSRATVREALQELISRGRIKREQGRGTYVLH
- soluble fraction (log2): -0.118

Sequence: HMGKAVTLEEARAIIQAKVPGASPDMIQIWEEHGDGRGRYEGELSYNNMKYEFEMDPKTGIIFDWNA
- soluble fraction (log2): -0.189

Sequence: HMGKEDISQINKLYQNQILDYETYIDTLNSFNIDTKSKDFKNLLDLFIKKSISFETFNKGIINIHNKS
- soluble fraction (log2): -1.01

Sequence: HMGKFMVQVGAFSRINGAEITRTKYDNLGTHKAIIKNLDGMNRVFLTGFLSEDEARDFIASSNLKGAFIIR
- soluble fraction (log2): -0.0731

Sequence: HMGKGVDKIMKMADDYSYGKIAGKTVDVMTAKLFQAAYNKAPQKAKDKVDKMNEKQLYIFMMNLWKRF
- soluble fraction (log2): 0.0998

Sequence: HMGKIILLFSDDDGVFDTALYRVRNYDGHRFAQSLGNAEMKWRHSEDEYFDFVLTSLREDGYDIEEIE
- soluble fraction (log2): -0.686

Sequence: HMGKIINMSKVKQVLRLHTQGVSNRRIALDLGLYKGTVNSYIRKIKDHGYDIAEVLKLDDPVLESKLFA
- soluble fraction (log2): 0.268

Sequence: HMGKKGPELNDNEKIIFNIISKENSMNLDDLKNRTELSNKQWDKAIKGLRSHELVNIEKIDDQLLIHL
- soluble fraction (log2): -0.598

Sequence: HMGKKQLVVDLQSIITDVPAALKSYGLEIGQDGKSLIYTYDTKGERTGITTLLNDLQKAGLQMTDMKTQQ
- soluble fraction (log2): -0.0755

Sequence: HMGKPTPASQVATRWLAGDLPETLPVAGPAPSFETLARSVSTDFHPRAVLQELLRLGVAEEADGRVRLLK
- soluble fraction (log2): -0.0325

Sequence: HMGKQPLYEQLVDLLRDRIENDMETGELLPSERKLAHHFGLSRTTVRLAMDRLETLGLITRVHGKDTFVAE
- soluble fraction (log2): -0.12

Sequence: HMGKREKTKVANRQAILVAARAVFAELGYEAATVRDIIRGTDLASGTFYNYFKSKEEVFDALADDGA
- soluble fraction (log2): -0.79

Sequence: HMGKSETALELIKRGHRLIADDAVEITRIGSTLSGTAPELIRNYLEVRGVGVIDVEKLFGVGAVQDSTQI
- soluble fraction (log2): -0.0577

Sequence: HMGKSPLDALSAREKEVLTYITRGVSINDIAAVLYLSPKTVSTHKTNLMQKLGIENNADLILFGVNHGLND
- soluble fraction (log2): -0.897

Sequence: HMGLIAPMPGQIRSVAVSVGDVVKKGQTLLTMEAMKMEIRIQALKDGRVTALHAAQGQTVEGEQILIEVE
- soluble fraction (log2): -0.652

Sequence: HMGLLEMPSERERQVLVLIAEGLSNKEIAARLYLTEGTVKNHAHSLYAKLNVTTRTLAIARARQLGI
- soluble fraction (log2): -0.731

Sequence: HMGLLLSQLDKDYQRYIDLADSTFRDNQLAVSRGWYNRALGVKAAEKYPKDQIAEIEKKIAERM
- soluble fraction (log2): -0.108
